B1: Protein-glutamine gamma-glutamyltransferase 2 (Homo sapiens), P21980 (parent)
chain: MAEELVLERCDLELETNGRDHHTADLCREKLVVRRGQPFWLTLHFEGRNYEASVDSLTFSVVTGPAPSQEAGTKARFPLRDAVEEGDWTATVVDQQDCTLSLQLTTPANAPIGLYRLSLEASTGYQGSSFVLGHFILLFNAWCPADAVYLDSEEERQEYVLTQQGFIYQGSAKFIKNIPWNFGQFEDGILDICLILLDVNPKFLKNAGRDCSRRSSPVYVGRVVSGMVNCNDDQGVLLGRWDNNYGDGVSPMSWIGSVDILRRWKNHGCQRVKYGQCWVFAAVACTVLRCLGIPTRVVTNYNSAHDQNSNLLIEYFRNEFGEIQGDKSEMIWNFHCWVESWMTRPDLQPGYEGWQALDPTPQEKSEGTYCCGPVPVRAIKEGDLSTKYDAPFVFAEVNADVVDWIQQDDGSVHKSINRSLIVGLKISTKSVGRDEREDITHTYKYPEGSSEEREAFTRANHLNKLAEKEETGMAMRIRVGQSMNMGSDFDVFAHITNNTAEEYVCRLLLCARTVSYNGILGPECGTKYLLNLNLEPFSEKSVPLCILYEKYRDCLTESNLIKVRALLVEPVINSYLLAERDLYLENPEIKIRILGEPKQKRKLVAEVSLQNPLPVALEGCTFTVEGAGLTEEQKTVEIPDPVEAGEEVKVRMDLLPLHMGLHKLVVNFESDKLKAVKGFRNVIIGPA

Variants of: B1
Settings: with KRT19, P08727
Sequence of KRT19, P08727 (P08727 whole entry): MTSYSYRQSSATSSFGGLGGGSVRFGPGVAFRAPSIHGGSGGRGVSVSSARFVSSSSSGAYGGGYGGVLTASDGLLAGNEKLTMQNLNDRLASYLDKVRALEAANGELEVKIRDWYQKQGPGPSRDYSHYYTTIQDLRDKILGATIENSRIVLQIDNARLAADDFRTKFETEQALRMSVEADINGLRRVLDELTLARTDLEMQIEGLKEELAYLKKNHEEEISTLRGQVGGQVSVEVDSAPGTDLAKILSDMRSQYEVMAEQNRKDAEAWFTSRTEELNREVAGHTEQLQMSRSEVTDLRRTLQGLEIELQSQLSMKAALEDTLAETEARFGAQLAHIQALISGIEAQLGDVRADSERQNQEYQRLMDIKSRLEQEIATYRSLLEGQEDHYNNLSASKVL

Row | Variant | effect of a mutation on the interaction
1 | C277V | disrupting interaction
